In general, Km refers to the substrate concentration at which the rate is half of its maximum. For orientation: kcat means the number of substrate molecules converted per active site and unit of time at saturation. What is called kcat/Km is the second-order rate constant that governs catalysis at low substrate concentration.

What all share (settings): Ca2+
Substrate in series [1]: O=[N+]([O-])c1ccc(O[C@H]2O[C@H](CO)[C@@H](O)[C@H](O)[C@H]2O)cc1
In words: Michaelis-Menten kinetics (KM) and 1H NMR of hydrolysis. Format: biochemical, Bacteroides thetaiotaomicron.

Substrate in series [2]: OC[C@H]1O[C@H](O[C@H]2[C@H](O)[C@@H](O)C(O)O[C@@H]2CO)[C@H](O)[C@@H](O)[C@@H]1O
The series can be described thus: stopped glucose oxidase/peroxidase assay, Michaelis-Menten (KM) with substrate inhibition. Format: biochemical, Bacteroides thetaiotaomicron.

Substrate in series [3]: OC[C@H]1O[C@H](OC[C@H]2OC(O)[C@H](O)[C@@H](O)[C@@H]2O)[C@H](O)[C@@H](O)[C@H]1O
The series can be described thus: purified protein.

Substrate in series [4]: O=[N+]([O-])c1ccc(O[C@H]2O[C@H](CO)[C@H](O)[C@H](O)[C@H]2O)cc1
In words: Michaelis-Menten kinetics (KM) and 1H NMR of hydrolysis. Format: biochemical, Bacteroides thetaiotaomicron.

B1: BtGH97a (Bacteroides thetaiotaomicron VPI-5482) (protein)
chain: QQKLTSPDNNLVMTFQVDSKGAPTYELTYKNKVVIKPSTLGLELKKEDNTRTDFDWVDRRDLTKLDSKTNLYDGFEVKDTQTATFDETWQPVWGEEKEIRNHYNELAVTLYQPMNDRSIVIRFRLFNDGLGFRYEFPQQKSLNYFVIKEEHSQFGMNGDHIAFWIPGDYDTQEYDYTISRLSEIRGLMKEAITPNSSQTPFSQTGVQTALMMKTDDGLYINLHEAALVDYSCMHLNLDDKNMVFESWLTPDAKGDKGYMQTPCNTPWRTIIVSDDARNILASRITLNLNEPCKIADAASWVKPVKYIGVWWDMITGKGSWAYTDELTSVKLGETDYSKTKPNGKHSANTANVKRYIDFAAAHGFDAVLVEGWNEGWEDWFGNSKDYVFDFVTPYPDFDVKEIHRYAARKGIKMMMHHETSASVRNYERHMDKAYQFMADNGYNSVKSGYVGNIIPRGEHHYGQWMNNHYLYAVKKAADYKIMVNAHEATRPTGICRTYPNLIGNESARGTEYESFGGNKVYHTTILPFTRLVGGPMDYTPGIFETHCNKMNPANNSQVRSTIARQLALYVTMYSPLQMAADIPENYERFMDAFQFIKDVALDWDETNYLEAEPGEYITIARKAKDTDDWYVGCTAGENGHTSKLVFDFLTPGKQYIATVYADAKDADWKENPQAYTIKKGILTNKSKLNLHAANGGGYAISIKEVKDKSEAKGLKRL
With B1, in series [1], the Michaelis constant (Km) was determined as 85 ± 9 µM, the kcat is 53 ± 2 s⁻¹ and the kcat/Km came to 620000 M⁻¹ s⁻¹. In addition, in series [2], the Km came out at 2000 ± 400 µM, the catalytic constant (kcat) came to 0.015 ± 0.002 s⁻¹ and the catalytic efficiency (kcat/Km) was found to be 7.2 M⁻¹ s⁻¹.

B2: BtGH97b (Bacteroides thetaiotaomicron VPI-5482) (protein)
chain: QKQFTLASPDGNLKTTITIGDRLTYDITCNGRQILTPSPISMTLDNGTVWGENAKLSGTSRKSVDEMIPSPFYRASELRNHYNGLTLRFKKDWNVEFRAYNDGIAYRFVNQGKKPFRVVTEVSDYCFPSDMTASVPYVKSGKDGDYNSQFFNSFENTYTTDKLSKLNKQRLMFLPLVVDAGDGVKVCITESDLENYPGLYLSASEGANRLSSMHAPYPKRTVQGGHNQLQMLVKEHEDYIAKVDKPRNFPWRIAVVTTTDKDLAATNLSYLLGAPSRMSDLSWIKPGKVAWDWWNDWNLDGVDFVTGVNNPTYKAYIDFASANGIEYVILDEGWAVNLQADLMQVVKEIDLKELVDYAASKNVGIILWAGYHAFERDMENVCRHYAEMGVKGFKVDFMDRDDQEMTAFNYRAAEMCAKYKLILDLHGTHKPAGLNRTYPNVLNFEGVNGLEQMKWSSPSVDQVKYDVMIPFIRQVSGPMDYTQGAMRNASKGNYYPCYSEPMSQGTRCRQLALYVVFESPFNMLCDTPSNYMREPESTAFIAEIPTVWDESIVLDGKMGEYIVTARRKGDVWYVGGITDWSARDIEVDCSFLGDKSYHATLFKDGVNAHRAGRDYKCESFPIKKDGKLKVHLAPGGGFALKIK
As to B2, in series [3], the Km was 1500 ± 170 µM, the kcat worked out at 0.015 s⁻¹ and the specificity constant (kcat/Km) was 11 M⁻¹ s⁻¹. Also, in series [4], the Km was 230 ± 10 µM, the kcat is 91 ± 2 s⁻¹ and the kcat/Km was 391000 M⁻¹ s⁻¹.
